In patent US20060029546A1 (DECODE GENETICS, published 2006):

Tests used:
[1] = target: T1, ErbB4 K751A bait (cytoplasmic domain, mutation in the ATP binding site) (human, UniProt Q15303 676-1308); assay: yeast two-hybrid growth assay
T1 construct: not shown: fusion partner encoded by the bait vector
Excerpt: (§1) To characterize components of the NRG1 signaling pathway downstream of the ErbB4 receptor tyrosine kinase, the predominant neuronal receptor for NRG1, the cytoplasmic domain of ErbB4 was used as a bait in a yeast two-hybrid interaction screen. The ErbB4 bait was created by cloning the entire cytoplasmic domain into the vector pGBKT7 (Clontech, Palo Alto, Calif.) using homologous recombination in the yeast strain AH109 (Clontech, Palo Alto, Calif.). Liner vector and the cytoplasmic fragment of ErbB4 were transfected into the yeast strain using the lithium acetate (LiAc) method and plated onto […] negative selection media plates. Plasmid DNA was isolated from positive colonies and the presence of ErbB4 was verified by sequencing.
(§2) The ErbB4 bait was capable of tyrosine auto-phosphorylation in yeast cells. Tyrosine phosphorylation was absent from ErbB4 baits which contained mutations in the ATP binding site (K751A) or the catalytic site (D843A). Homo sapiens random prime hippocampus cDNA library was created using the ZAP-cDNA Gigapack III Gold Cloning Kit (Stratagene) and transformed into yeast using Li Acetate. Screening of a human hippocampus cDNA library yielded a partial cDNA clone comprising the SH2 and SH3 domains of Fyn (amino acids 60-252 of SEQ ID NO: 3). SH2 domains are protein modules able to bind phosphorylated tyrosine residues. […]

[2] = target: T2, ErbB4 D843A bait (cytoplasmic domain, mutation in the catalytic site) (human, UniProt Q15303 676-1308); assay: yeast two-hybrid growth assay
T2 construct: not shown: fusion partner encoded by the bait vector
Excerpt: as §1, §2

- binding result [1]: no binding
- binding result [2]: no binding
B1: partial cDNA clone comprising the SH2 and SH3 domains of Fyn (amino acids 60-252) (enzyme)
chain: not shown
notes: The clone came from a human hippocampus cDNA library; also called Fyn clone; p59Fyn; not shown: fusion partner of the yeast two-hybrid library (prey) vector
